Data published in paper PMC4070327 (Science (New York, N.Y.), 2014).

T1: E. coli Trigger Factor (TF), full length (E. coli, UniProt P0A850 1-432)
T1 sequence (looked up): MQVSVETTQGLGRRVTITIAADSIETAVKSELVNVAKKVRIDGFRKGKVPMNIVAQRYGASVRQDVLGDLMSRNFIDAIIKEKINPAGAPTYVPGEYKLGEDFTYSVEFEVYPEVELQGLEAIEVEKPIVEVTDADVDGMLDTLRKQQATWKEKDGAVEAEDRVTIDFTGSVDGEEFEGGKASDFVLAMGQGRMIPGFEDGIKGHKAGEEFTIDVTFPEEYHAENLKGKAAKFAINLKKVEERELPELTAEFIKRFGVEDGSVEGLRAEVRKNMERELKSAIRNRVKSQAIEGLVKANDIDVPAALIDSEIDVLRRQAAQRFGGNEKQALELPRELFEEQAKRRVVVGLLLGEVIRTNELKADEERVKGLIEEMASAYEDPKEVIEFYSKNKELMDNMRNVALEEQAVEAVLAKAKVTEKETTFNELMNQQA


What was measured:
[1] = target: T1, E. coli Trigger Factor (TF), full length; experiment: ITC
[2] = target: T1, E. coli Trigger Factor (TF), full length; experiment: ITC + NMR titration
[3] = target: T1, E. coli Trigger Factor (TF), full length; experiment: NMR titration

Row | Binder | Kd [1] | Kd [2] | stoichiometry N [3]
1 | PhoA site b (independent fragment) (domain or fragment) TPEMPVLENRAAQGDITAPGGARRLTGDQTAALRDSLSDKPAKNIILLIGDGMGDS |  | ~200 µM | 
2 | PhoA^a-c (PhoA fragment with TF-binding sites a to c) (domain or fragment, E. coli, UniProt P00634 1-150, looked up) MKQSTIALALLPLLFTPVTKARTPEMPVLENRAAQGDITAPGGARRLTGDQTAALRDSLSDKPAKNIILLIGDGMGDSEITAARNYAEGAGGFFKGIDALPLTGQYTHYALNKKTGKPDYVTDSAASATAWSTGVKTYNGALGVDIHEKD | ~2 µM |  | 1 TF per PhoA^a-c

Further lines, results first:

Row | Kd [1] | Kd [2] | stoichiometry N [3] | Binder
3 | ~14 µM |  |  | PhoA^f-g (PhoA fragment with TF-binding sites f and g) (domain or fragment, E. coli) QIGETVDLDEAVQRALEFAKKEGNTLVIVTADHAHASQIVAPDTKAPGLTQALNTKDGAVMVMSYGNSEEDSQEHTGSQLRIAAYGPHAANVVGLTDQTDLFYTMKAALGLK
4 | ~4 µM |  |  | PhoA^d-e (PhoA fragment with TF-binding sites d and e) (domain or fragment, E. coli) ARADVTLGGGAKTFAETATAGEWQGKTLREQAQARGYQLVSDAASLNSVTEANQQKPLLGLFADGNMPVRWLGPKATYHGNIDKPAVTCTP
